# Measured values: US20210277441A1, “METHOD OF SELECTING A POLYPEPTIDE OF INTEREST” (IMPERIAL COLLEGE INNOVATIONS LIMITED, priority 2018, published 2021)
# B1: MsIRED-s: MsIRED variant with N32E, R33V, T34R and K37R, NADH-dependent (protein)
# chain: MKPTLTVIGAGRMGSALIKAFLQSGYTTTVWEVRKARSEPLAKLGAHLADTVRDAVKRSDIIVVNVLDYDTSDQLLRQDEVTRELRGKLLVQLTSGSPALAREQETWARQHGIDYLDGAIMATPDFIGQAECALLYSGSAALFEKHRAVLNVLGGATSHVGEDVGHASALDSALLFQMWGTLFGTLQALAISRAEGIPLEKTTAFIKLTEPVTQGAVADVLTRVQQNRLTADAQTLASLEAHNVAFQHLLALCEERNIHRGVADAMYSVIREAVKAGHGKDDFAILTRFLK
# modifications: variant of Myxococcus stipitatus imine reductase
# notes: MsIRED variant with N32E, R33V, T34R and K37R, NADH-dependent
# Experiments:
# [1] = system: LS1 strain (ΔadhE ΔldhA double mutant) cells; test: Metabolic complementation (anaerobic growth recovery) of LS1/AL strain; format: cell-based, Escherichia coli; conditions: media supplemented with 2-methylpyrroline
# Method: The LS1 mutant strain and the parental BW25113 strain were transformed with the desired plasmid and overnight pre-cultures were grown aerobically in 15 mL Falcon tubes with M9 media (0.4% glucose). These pre-cultures were used to inoculate 10 mL Hungate tubes with M9 medium (0.4% glucose) supplemented with 100 μg/mL ampicillin, 1 mM IPTG and with or without the specific substrate of the dehydrogenase under anaerobic conditions at 37° C. Metabolic complementation was assessed by measuring the optical density at 600 nm every two hours during daytime.
# AL cells = test: 1H NMR analysis of fermentation broth of anaerobic cultures; format: cell-based, Escherichia coli; parameters: Substrate concentration: unit not given here; conditions: exogenous substrate 2-methyl-1-pyrroline
# [2] = Kinetics of evolved and parental enzymes, 2-methylpyrroline as variable substrate; format: biochemical; conditions: reductase activity towards 2-methylpyrroline
molecule,measurement,setting,value
B1,anaerobic growth compared with best variant of previous studies,[1],more efficiently
same,Acetate concentration,AL cells,15.9
same,Ethanol concentration,AL cells,0
same,Formate concentration,AL cells,12.8
same,Lactate concentration,AL cells,0
same,Substrate concentration,AL cells,0.8
same,Succinate concentration,AL cells,2
same,Product concentration,AL cells; product 2-methylpyrrolidine,13.4
same,activity with NADPH,[2],no activity was detected
